The nature of data set [1]: Fluorescence adsorption study (intrinsic tryptophan fluorescence) of binding to cuvette walls. The format is physicochemical. As to conditions: solution of TGF-β (1 μg/ml) in water, 25° C. From the text:
We have also developed an analytical method suitable for determining suitable concentrations of TGF-β, especially TGF-β3. When adsorption of a fluorescent molecule (protein) occurs to the cuvette walls the concentration of the molecule in the solution decreases. This change in concentration is monitored by changes (reduction) in the fluorescence intensity. With optimized slits in the excitation and emission monochromators the excitation beam is focused in a small region in the middle of the cuvette and the emission is collected also preferentially from the same region. […] In these conditions the fluorescence intensity is proportional to the concentration of the molecules in the aqueous solution (monitored in the middle of the cuvette). If binding occurs a decrease in the fluorescence intensity is observed. For TGF-β the intrinsic tryptophan fluorescence is used in the adsorption studies. To characterize an adsorption process the percentage from the total TGF-β in the cuvette which bound to the walls in a given time interval, e.g. 25 minutes, is measured. Fluorescence measurements are performed with a Spex Fluorolog® or a Spex Fluoromax® spectrophotometers with a stirred attachment in the cell holder at 25° C. Tryptophan fluorescence is excited at 280 nm and emission monitored at 340 nm. […]

Data set [2] in a line: Aggregation by 90°-light scattering. As to conditions: 10 mM calcium chloride or 10 mM calcium phosphate, and 20% isopropanol or ethanol; increasing TGF-β3 concentration up to 60 μg/ml. It is filed as physicochemical. How it is done: Aggregation of TGF-β3 in different aqueous conditions is studied using 90°-lightscattering. Using the same wavelength for excitation and emission, e.g. excitation and emission wavelength is 560 nm, a Spectrofluorimeter is used to detect aggregation events by measuring the 90°-light scatter. In this method a small aliquot of TGF-β3 stock solution is added in the fluorescence cuvette. If aggregation takes place an increase in the 90°-light scatter intensity is observed.
A composition comprising 10 mM calcium chloride or 10 mM calcium phosphate, and 20% isopropanol or ethanol is prepared.

Data set [3] has as its system cranial bone defect. The data set can be described thus: Rabbit cranial defect model, bony filling by quantitative radiography. The format is in vivo. The protocol:
(§1) The in vivo performance of the pharmaceutical compositions of the present invention may be tested on horses (wound healing), pigs (oral mucositis inhibition), rabbits e.g. with the rabbit cranial defect model (induction of repairing of bone defects), and femal mice (induction of angiogenesis).
Bone disks removed for creation of the defect served as controls for the extent of bone regeneration. After an eight week healing period the bony filling of the defects was determined by quantitative radiography. The total defect area corresponded to 113320.2 pixels and was taken as 100% for further calculations. Accordingly, complete regeneration corresponded to a value of 11.3×10^4 pixels.

A short description of data set [4]: Chemical stability of lyophilized formulation, by-products by capillary zone electrophoresis. The format is physicochemical. As to conditions: in the absence of CaCl2. The protocol: The chemical stability of lyophilized formulation in vials containing TGF-β3, 5.881 mg of CaCl2 and 25 mg of mannitol have been tested. The vials are solubilized to obtain TGF-β3 solutions of 0.1 mg/ml and 0.25 mg/ml. TGF-β3 by-products (related substances) are determined by capillary zone electrophoresis. […] There is no increase in the TGF-β3 by-products after 6 month incubation at 40° C. In comparison, in the absence of CaCl2 the chemical degradation is substantial.

Data set [5] concerns vascularization. The data set can be described thus: Mouse subcutaneous model (induction of angiogenesis). It is filed as in vivo.
Description: as §1

Consider TGF-β, for which the “binding to plastic, quartz and siliconised quartz cuvettes” value in data set [1] is reported as “bind strongly”.

As to “TGF-β3: 25 kD homodimeric, disulfide-linked protein composed of two 112 amino acid polypeptides”, in data set [2], the “aggregation (90°-light scatter intensity)” value is “No aggregation”. For the same substance, in data set [3], the “bone formation (in words)” value is on record as “strong bone formation”. Further, the chemical degradation result in data set [4] is reported as “substantial”. Further, the “vascularization (in words)” value in data set [5] is listed as “strong vascularization”.

The values are drawn from patent US6649168B2, “Pharmaceutical compositions comprising TGF-beta” (Novartis AG, priority 1999, dated 2003).
